Results published in patent publication US20200377560A1 (WYL SCIENCES, published 2020).

Biological target: T1, bovine serum albumin (bovine, UniProt P02769 25-607)
T1 construct: Control protein in the dot immunoblot; also called BSA
Assay: dot immunoblot, BSA dotted as control
Description: The fusion protein containing the full-length royalactin with a histidine tag (SEQ ID NO: 2), which was confirmed to have biological activity in Example 1, was produced in bacteria and purified. This protein was used to generate monoclonal antibodies by injection into mice with subsequent harvest of the spleen for generation of multiple hybridomas. Individual hybridomas were isolated and the antibody produced was screened using dot immunoblot assays. Various concentrations of royalactin were dotted onto the blot with bovine serum albumin (BSA) as a control.

T1 sequence (P02769 25-607 limits assumed): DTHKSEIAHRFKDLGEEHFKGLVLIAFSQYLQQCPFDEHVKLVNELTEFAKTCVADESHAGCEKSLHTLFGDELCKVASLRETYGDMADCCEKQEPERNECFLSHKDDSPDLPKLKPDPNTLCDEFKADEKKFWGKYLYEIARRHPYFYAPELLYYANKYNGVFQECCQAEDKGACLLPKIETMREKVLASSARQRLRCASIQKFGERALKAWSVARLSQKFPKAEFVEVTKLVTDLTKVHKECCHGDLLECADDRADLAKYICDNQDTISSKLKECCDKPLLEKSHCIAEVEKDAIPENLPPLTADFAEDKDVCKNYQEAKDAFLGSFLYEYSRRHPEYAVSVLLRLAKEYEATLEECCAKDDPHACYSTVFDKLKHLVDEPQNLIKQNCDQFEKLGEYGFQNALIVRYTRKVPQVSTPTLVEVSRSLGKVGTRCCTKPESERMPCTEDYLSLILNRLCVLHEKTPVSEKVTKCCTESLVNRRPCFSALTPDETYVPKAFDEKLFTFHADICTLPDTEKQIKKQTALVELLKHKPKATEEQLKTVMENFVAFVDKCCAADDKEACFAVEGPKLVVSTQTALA

B1: monoclonal antibody #19 (4G6C5) (antibody, V domains shown)
VH: VMLVESGGGLVKPGGSLKLSCAASGFTFSRYAMSWNRQTPEKRLEWVATISPGGGYIYYSDSVKGRFTISRDNARNTLYLQMSSLRSEDTAMYYCAGDYVDYWGQGTTLTVSS
VL: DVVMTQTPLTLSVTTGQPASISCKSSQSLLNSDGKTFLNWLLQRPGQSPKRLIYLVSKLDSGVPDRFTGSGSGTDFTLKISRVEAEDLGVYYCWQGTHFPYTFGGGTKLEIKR
notes: Mouse hybridoma monoclonal antibody; also called antibody 4G6C5; hybridoma #19
B1: no binding (tested: 2 ng).
